The values below come from article PMC7496933, “TIM‐3 and CEACAM1 do not interact in cis and in trans” (European Journal of Immunology, 2020).

The target of the assay is T1, recombinant human CEACAM1 expressed in the murine myeloma cell line NSO (human, UniProt P13688 35-428).
T1 construct: human CEACAM1, recombinant; also called immobilized CEACAM1; CD66a; source: bought: R&D systems (expressed in NSO cells)
T1 sequence (looked up): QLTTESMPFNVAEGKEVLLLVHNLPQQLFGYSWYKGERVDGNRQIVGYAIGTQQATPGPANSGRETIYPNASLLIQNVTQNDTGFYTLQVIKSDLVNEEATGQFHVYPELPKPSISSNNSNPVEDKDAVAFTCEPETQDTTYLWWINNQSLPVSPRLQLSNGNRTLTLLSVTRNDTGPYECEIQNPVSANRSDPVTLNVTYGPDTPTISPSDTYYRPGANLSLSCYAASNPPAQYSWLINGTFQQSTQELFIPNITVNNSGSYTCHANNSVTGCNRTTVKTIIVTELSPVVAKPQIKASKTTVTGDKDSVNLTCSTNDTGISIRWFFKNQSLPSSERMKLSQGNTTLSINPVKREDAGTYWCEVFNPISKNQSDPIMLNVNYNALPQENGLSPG
As to the kind of experiment: ELISA; Gal‐9 or CEACAM1 immobilized overnight at 4°C on Maxisorp plates (coating 0.5 μg/mL); Ig fusion proteins added in PBS‐0.5% BSA, 1 h at room temperature; detected with HRP‐labeled goat‐anti‐human IgG (Fc‐specific), ABTS, OD 405 nm. The settings on record: both partners purified. (In an ELISA, binding on a coated surface is turned into a signal by an enzyme label.)

B1: fusion protein representing the extracellular domain of CEACAM1 (CEACAM1‐Ig) (Fc fusion, human, UniProt P13688 35-428, looked up)
chain: QLTTESMPFNVAEGKEVLLLVHNLPQQLFGYSWYKGERVDGNRQIVGYAIGTQQATPGPANSGRETIYPNASLLIQNVTQNDTGFYTLQVIKSDLVNEEATGQFHVYPELPKPSISSNNSNPVEDKDAVAFTCEPETQDTTYLWWINNQSLPVSPRLQLSNGNRTLTLLSVTRNDTGPYECEIQNPVSANRSDPVTLNVTYGPDTPTISPSDTYYRPGANLSLSCYAASNPPAQYSWLINGTFQQSTQELFIPNITVNNSGSYTCHANNSVTGCNRTTVKTIIVTELSPVVAKPQIKASKTTVTGDKDSVNLTCSTNDTGISIRWFFKNQSLPSSERMKLSQGNTTLSINPVKREDAGTYWCEVFNPISKNQSDPIMLNVNYNALPQENGLSPG
notes: CEACAM1 (CD66a), extracellular domain; also called CEACAM1 Ig fusion protein; source: bought: SinoBiological
On to B1, for which the binding result is on record as “binds”.
